One block for each molecule: values may come before it.
Experiments:
[1] = biological target: TSHR with Asp160 mutated to Lys, expressed in CHO cells (human) (UniProt P16473); assay: cell-based or functional assay
[2] = biological target: TSH receptor (TSHR), full length human, coated on tubes (human) (UniProt P16473); assay: inhibition of 125I-TSH binding to TSHR coated tubes; 100 µg/mL, diluted in assay buffer

- % inhibition of TSH stimulation (stimulator given as M22), mutated TSHR; 5B3 10 µg/mL [1]: 0%
- % inhibition of TSH stimulation (stimulator given as M22), mutated TSHR; 5B3 100 µg/mL [1]: 11%
- Mutated/wild type (%) of cyclic AMP produced; test sample: 5B3 10 µg/mL + M22 [1]: 69%
- Mutated/wild type (%) of cyclic AMP produced; test sample: 5B3 100 µg/mL + M22 [1]: 60%
Molecule: 5B3 IgG (antibody)

- Inhibition of binding (%) [2]: 92.5%
B1: 5C9 IgG (antibody, from another filing, V domains shown)
VH: EVQLVESGGGLIQPGGSLRLSCAASGFTVSSNYMSWVRQAPGKGLEWVSVTYSGGSTSYADSVKGRFTISRDNSKNTLYLQMNSLRAEDTAVYYCARGGRYCSSISCYARSGCDYWGQGTLVTVSS
VL: AIQMTQSPSSLSASVGDRVTITCRASQSISNYLNWYQQKPGKAPKLLIYAASSLQSGVPSRFSGSGSGTDFTLTISSLQPEDFATYYCQQSYSSPSTTFGQGTKLEIK
